Data as given in US20210214414A1 (Pfizer, published 2021).

How the values were obtained:
Rat SLIT2-N = target: T1, Rat SLIT2-N (rat, UniProt Q9WVC1 31-766, limits assumed); assay: SPR, ROBO2-Fc 2.2 captured by anti-human Fc on a C1 chip, rat SLIT2-N as analyte, 1:1 model
T1 construct: domain: SLIT2-N (N terminal fragment)
T1 sequence (looked up): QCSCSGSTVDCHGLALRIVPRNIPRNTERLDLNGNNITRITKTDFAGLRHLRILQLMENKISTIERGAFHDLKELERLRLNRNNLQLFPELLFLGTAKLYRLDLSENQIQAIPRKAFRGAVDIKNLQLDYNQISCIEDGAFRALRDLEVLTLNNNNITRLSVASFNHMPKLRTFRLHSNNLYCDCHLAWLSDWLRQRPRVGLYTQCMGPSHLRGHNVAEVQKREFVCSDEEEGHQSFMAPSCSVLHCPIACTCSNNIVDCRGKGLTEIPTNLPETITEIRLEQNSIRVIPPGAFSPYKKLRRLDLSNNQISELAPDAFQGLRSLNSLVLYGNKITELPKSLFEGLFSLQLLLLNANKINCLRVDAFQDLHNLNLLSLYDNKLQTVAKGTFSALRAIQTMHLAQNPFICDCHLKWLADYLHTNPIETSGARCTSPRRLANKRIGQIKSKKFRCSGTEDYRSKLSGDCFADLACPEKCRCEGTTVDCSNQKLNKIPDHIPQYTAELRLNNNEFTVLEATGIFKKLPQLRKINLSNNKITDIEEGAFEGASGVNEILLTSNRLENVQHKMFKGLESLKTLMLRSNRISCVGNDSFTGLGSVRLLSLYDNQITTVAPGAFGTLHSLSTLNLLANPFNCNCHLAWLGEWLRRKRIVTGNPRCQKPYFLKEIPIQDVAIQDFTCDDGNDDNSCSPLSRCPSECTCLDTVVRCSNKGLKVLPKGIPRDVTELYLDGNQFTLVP
Protocol: HBS-EP was used as a diluent. […] An 8 point 2-fold dilution series was performed on the SLIT2 ligands, ranging from 2 nM to 15.6 pM using HBS-EPB as the diluent. […] Association of the indicated SLIT2 ligand was followed for 120 s and dissociation monitored for 180 s. The apparent binding affinity was determined using a simple 1:1 interaction model of the kinetic rate constants.

Human SLIT3-N = target: T2, Human SLIT3-N (human, UniProt O75094 34-1119, limits assumed); assay: HTRF competition: d2-labelled human SLIT3-N binding to human ROBO2 on HEK293 cells; geometric mean, n=3
T2 construct: domain: SLIT3-N; d2-labelled in the HTRF assay
T2 sequence (looked up): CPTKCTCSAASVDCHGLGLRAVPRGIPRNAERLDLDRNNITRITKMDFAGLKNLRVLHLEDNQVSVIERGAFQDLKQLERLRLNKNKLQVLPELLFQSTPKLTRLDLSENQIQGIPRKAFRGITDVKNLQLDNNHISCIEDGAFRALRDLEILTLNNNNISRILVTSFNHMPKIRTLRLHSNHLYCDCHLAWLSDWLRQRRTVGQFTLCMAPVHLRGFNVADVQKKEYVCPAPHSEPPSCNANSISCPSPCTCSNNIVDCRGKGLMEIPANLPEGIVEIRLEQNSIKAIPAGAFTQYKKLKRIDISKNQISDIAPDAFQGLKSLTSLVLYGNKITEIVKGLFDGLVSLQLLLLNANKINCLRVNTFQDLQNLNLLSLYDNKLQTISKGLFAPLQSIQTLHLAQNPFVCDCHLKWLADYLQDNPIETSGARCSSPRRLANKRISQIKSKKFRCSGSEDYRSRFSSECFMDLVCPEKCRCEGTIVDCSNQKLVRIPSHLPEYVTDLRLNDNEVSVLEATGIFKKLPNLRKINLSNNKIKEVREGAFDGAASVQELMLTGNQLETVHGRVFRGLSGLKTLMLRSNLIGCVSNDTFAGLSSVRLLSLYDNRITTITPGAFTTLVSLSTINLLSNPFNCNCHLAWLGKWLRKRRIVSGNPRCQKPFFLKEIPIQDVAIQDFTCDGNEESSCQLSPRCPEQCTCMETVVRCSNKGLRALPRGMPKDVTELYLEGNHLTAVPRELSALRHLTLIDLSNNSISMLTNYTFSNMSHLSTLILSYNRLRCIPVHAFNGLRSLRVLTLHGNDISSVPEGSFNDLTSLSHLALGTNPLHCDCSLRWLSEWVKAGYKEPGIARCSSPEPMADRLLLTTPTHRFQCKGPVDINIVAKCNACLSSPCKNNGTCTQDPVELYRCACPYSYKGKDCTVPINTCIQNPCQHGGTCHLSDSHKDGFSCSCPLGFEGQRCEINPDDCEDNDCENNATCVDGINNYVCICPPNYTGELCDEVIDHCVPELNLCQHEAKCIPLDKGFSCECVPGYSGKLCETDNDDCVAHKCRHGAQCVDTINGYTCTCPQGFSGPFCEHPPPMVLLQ
Protocol: After incubation, fluorescence at 665 nm and 620 nm was measured on an Envision multilabel plate reader. The HTRF Ratio was calculated as follows: fluorescence at 665 nm/fluorescence at 620 nm×10,000. […] The IC₅₀ for each SLITx-N was determined using an 11-point, 4-fold dilution series with a top concentration of 4000 nM.

Kd (Rat SLIT2-N): 0.543 nM
IC50 (Human SLIT3-N): 5.1 nM
B1: ROBO2-Fc 2.2 (Fc fusion)
chain: SRLRQEDFPPRIVEHPSDVIVSKGEPTTLNCKAEGRPTPTIEWYKDGERVETDKDDPRSHRMLLPSGSLFFLRIVHGRRSKPDEGSYVCVARNYLGEAVSRNASLEVALLRDDFRQNPTDVVVAAGEPAILECQPPRGHPEPTIYWKKDKVRIDDKEERISIRGGKLMISNTRKSDAGMYTCVGTNMVGERDSDPAELTVFERGGSGGSEPKSSDKTHTCPPCPAPEAAGAPSVFLFPPKPKDTLMISRTPEVTCVVVDVSHEDPEVKFNWYVDGVEVHNAKTKPREEQYNSTYRVVSVLTVLHQDWLNGKEYKCKVSNKALPAPIEKTISKAKGQPREPQVYTLPPSREEMTKNQVSLTCLVKGFYPSDIAVEWESNGQPENNYKTTPPVLDSDGSFFLYSKLTVDKSRWQQGNVFSCSVMHEALHNHYTQKSLSLSPG
notes: Labelled with Alexa Fluor 647 in the flow cytometry assay; also called ROBO-Fc 2.2; ROBO2-Fc 2.2-AF647
